Measurements published in US10584153B2, “Treatment of damaged nerve with PTEN inhibitor” (TISSUEGENE, INC., priority 2013, dated 2020).
Values joined by “and” are separate entries in the source; they are usually repeats but may differ in a detail not shown here. Equal entries are not always repeated. No end group written: not given here.

Experiments:
PTEN [1] = molecular target: T1, PTEN (Homo sapiens, UniProt P60484); details: from Odriozola et al.; read-out: IC50, in vitro PTEN (Odriozola peptides); cited from earlier work
Target sequence in this assay (P60484 whole entry, species assumed): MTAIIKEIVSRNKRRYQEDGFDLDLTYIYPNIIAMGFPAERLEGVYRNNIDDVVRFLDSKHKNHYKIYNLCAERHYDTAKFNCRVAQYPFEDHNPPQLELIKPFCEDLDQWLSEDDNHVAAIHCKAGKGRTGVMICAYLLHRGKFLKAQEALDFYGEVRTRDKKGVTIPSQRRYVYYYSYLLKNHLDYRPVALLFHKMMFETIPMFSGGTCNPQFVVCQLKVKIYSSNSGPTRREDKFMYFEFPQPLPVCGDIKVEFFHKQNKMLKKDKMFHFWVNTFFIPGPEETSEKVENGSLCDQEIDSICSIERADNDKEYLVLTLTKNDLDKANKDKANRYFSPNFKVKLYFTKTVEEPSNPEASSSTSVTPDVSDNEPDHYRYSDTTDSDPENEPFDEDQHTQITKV

PTEN [2] = molecular target: T1, PTEN; test: In vitro PTEN activity assay / IC50 assay (Malachite Green, C8-PIP3 liposome); format: biochemical; set-up: purchased R&D Systems, Inc; details: 10 μM peptide
Target sequence in this assay (P60484 whole entry): as the sequence (P60484 whole entry, species assumed) above
Description: In vitro PTEN activity assay was designed to check PTEN lipid phosphatase activity to convert phosphatidylinositol triphosphate (PIP3) to phosphatidylinositol diphosphate (PIP2) and produce phosphate ion (Pi). 1,2-dioctanoyl-sn-glycero-3-phospho-(1′-myo-inositol-3,4,5-triphosphate) (C8-PIP3) was used as PTEN substrate and prepared as lipid vesicle (liposome) with other phospholipids because PTEN as lipid phosphatase is an interfacial enzyme. For liposome preparation, C8-PIP3, DOPS (1,2-dioeloyl-sn-glycero-phosphoserine) and DOPC (1,2-dioeloyl-sn-glycero-phosphocholine) were mixed together with 800 μL of liposome buffer (50 mM Tris, 100 mM NaCl, 10 mM MgCl2, 5 mM DTT, pH=8.0) to final concentration of 0.1 mM of C8-PIP3, 0.25 mM DOPS and 0.25 mM DOPC. The lipid mixture was then sonicated at 4° C. for 30 min to produce liposome. After sonication, the liposome solution was briefly centrifuged to remove remaining lipids.
For PTEN activity assay, 20 ng of recombinant human PTEN protein was mixed with 40 μL of completed liposome solution. […] After incubation, the inorganic phosphate ions produced by PTEN protein was detected using Malachite Green phosphate detection kit. […]
All data represent experimentation in triplicate and the IC50 values were calculated by Prism 5 software (GraphPad Software).

[3] = system: Akt protein phosphorylation in PC12 cells (PI3K-Akt signaling pathway); test: Akt activation (phosphorylation) level by Western blot in PC12 cells; format: cell-based, rat; details: endogenous or overexpressed PTEN, TGN-1 10 and 100 μM, TGN-4 10 μM, 24 hr
Protocol: PC12 rat pheochromocytoma cells were seeded to 6-well plate (0.6×10^6 cells/well) and cultured with DMEM media containing 7.5% FBS and 7.5% Goat Serum. After the cell confluency reached around 60˜70%, NGF (nerve growth factor, 50 ng/mL) was added to the PC12 cells for differentiation and incubated for 5 more days. Then, fresh media containing different amounts of TGN peptides in DMSO solution were added to each well and incubated further for 24 hr. For PTEN overexpession, PC12 cells were seeded in 6-well plate (1.0×10^6 cells/well) and differentiated with NGF (50 ng/mL) as above. DNA-Lipofectamine 2000 mixture was prepared for each well of cells to be transfected by firstly adding 2˜2.5 μg of human PTEN c-DNA into 500 μl of Opti-MEM. 3.75-8.75 μl of Lipofectamine 2000™ reagent was added next to the above diluted DNA solution, mixed gently and incubated for 25 minutes at room temperature. Growth media of PC12 cells in 6-well plate was exchanged with fresh media and 500 μl of the DNA-Lipofectamine 2000 complex was added to each well for transfection. Transfected cells were incubated at 37° C. in 5.0% CO2 incubator for 24-48 hours post-transfection before assaying for transgene expression.
After culturing, PC12 cells were collected from the 6-well plate and centrifuged down with bench-top centrifuger to make cell pellet (13,000 rpm, 5 min at RT). […]

Row | Substance | IC50 (PTEN [1]) | Inhibitory effect on in vitro PTEN activity (PTEN [2]) | Activation (phosphorylation) level of Akt protein [3]
1 | Cp23: synthetic phosphomimic peptide of Odriozola et al. encompassing PTEN AA368-390, no phosphorylated Serine residues (DVSDNEPDHYRYSDTTDSDPENE; UniProt P60484 368-390, looked up, fragment) | ~1030 µM and 1030 µM | – | –
2 | RRRRRRRR-DEHDTEYTPDYRQETHFNSQPTDKSDVI-amide (RRRRRRRRDEHDTEYTPDYRQETHFNSQPTDKSDVI-NH2) [TGN-5, TGN-2/TGN-3 scrambled peptide] | – | no significant inhibition | –
3 | RRRRRRRR-SDDEYTDNPDSRYVSDTPVDTEH-amide (RRRRRRRRSDDEYTDNPDSRYVSDTPVDTEH-NH2) [TGN-4, scrambled peptide of TGN-1 peptide, negative control] | – | no significant inhibition | did not increase the activation level of AKT protein
